Molecular target: runt homology domain (RHD) of hRUNX1c (human)
Assay: BLI; biotinylated RHD loaded on streptavidin biosensors; CBFβ, CBFβ-SMMHC or mutants in solution at varying concentrations (50-600 nM); Octet RED96e; 20 mM Tris-HCl pH 8.0, 100 mM KCl, 1 mM EDTA, 1 mM DTT, 0.02% Tween 20; global fit

Row | Substance | Kd
1 | CBFβ-SMMHC (from UniProt Q13951 1-165) | 13 nM
2 | core-binding factor β (CBFβ) (from UniProt Q13951-2 1-187) (natural protein) | 64.7 nM
